Molecular target: anti-human β-tryptase antibody
Assay: sandwich ELISA dose response: plate coated with anti-human β-tryptase antibody, β-tryptase calibrator titrated, detected with AP-conjugated anti-human β-tryptase, luminescence

human β-tryptase (from UniProt Q15661 31-275) (enzyme)
EC50: 0.065 µg/mL
